Article PMC4515144 (Chemistry & biology, 2015)
*: point of attachment. P‑1 benzyl acid (p-CN) = benzyl acid lacking the N-terminal amino group (p-cyano substituted), replacing Tyr at P-1, N#Cc1ccc(CCC(=O)*)cc1; P‑1 benzyl acid (p-SO2NH2) = p-sulfonamide (SO2NH2) benzyl acid lacking the N-terminal amino group, replacing Tyr P-1; P‑1 benzyl acid (m-CH3) = m-methyl benzyl acid lacking the N-terminal amino group, replacing Tyr P-1; P‑1 benzyl acid (m-Cl) = m-chloro benzyl acid lacking the N-terminal amino group, replacing Tyr P-1; P‑1 benzyl acid (m-F) = m-fluoro benzyl acid lacking the N-terminal amino group, replacing Tyr P-1; P‑1 benzyl acid (p-NH2) = benzyl acid at P-1 lacking the N-terminal amino group, replacing Tyr P-1; Propanoyl(3-(4-F-phenyl)) = O=C(CCc1ccc(F)cc1)*

Columns and labels:
[1] = molecular target: EphA2-LBD (residues 27-200) (Homo sapiens, UniProt P29317); test: 1D 1H-aliph NMR binding assay, rank ordering; conditions: 10 μM EphA2-LBD, 100 μM compound; arbitrary scale 1 to 5
EphA2-LBD (residues 27-200), sequence (P29317 27-200): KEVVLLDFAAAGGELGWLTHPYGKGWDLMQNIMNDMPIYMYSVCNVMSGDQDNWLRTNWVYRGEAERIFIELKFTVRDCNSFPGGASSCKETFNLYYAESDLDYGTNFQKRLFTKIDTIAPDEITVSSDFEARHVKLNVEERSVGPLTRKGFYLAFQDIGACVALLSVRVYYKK

[2] = Plasma stability by LC-MS; conditions: rat plasma, 37 °C; 123B7 versus YSA, 123B4 versus YSA-9mer
[3] = mice; ref Singla et al., 2002; Zhang et al., 2013; cited from earlier work
[4] = cited from earlier work
[5] = molecular target: EphA2 ligand binding domain (residues 27-200) (UniProt P29317 27-200); test: NMR titration
EphA2 ligand binding domain (residues 27-200), sequence (P29317 27-200): as above

Row | Molecule | Rank ordering by NMR [5] | further results
1 | 120H5 ({P‑1 benzyl acid (p-NH2)}-SAYPDSVP-NH2) |  | Rank ordering by NMR [1]: 1
2 | CSCC[C@H](NC(=O)[C@H](CCSC)NC(=O)[C@@H]1CCCN1C(=O)[C@@H](NC(=O)[C@H](CO)NC(=O)[C@H](CC(=O)O)NC(=O)[C@@H]1CCCN1C(=O)[C@H](Cc1ccc(O)cc1)NC(=O)[C@H](C)NC(=O)[C@H](CO)NC(=O)COc1ccc(F)c(Cl)c1)C(C)C)C(=O)N[C@@H](CO)C(N)=O [123B7] |  | plasma stability versus corresponding non-optimized peptide [2]: significantly improved peptide stability
3 | CC(=O)O[C@H]1C(=O)[C@@]2(C)[C@H]([C@H](OC(=O)c3ccccc3)[C@]3(O)C[C@H](OC(=O)[C@H](O)[C@@H](NC(=O)c4ccccc4)c4ccccc4)C(C)=C1C3(C)C)[C@]1(OC(C)=O)CO[C@@H]1C[C@@H]2O [PTX, paclitaxel] |  | single dose MTD [3]: < 30 mg/kg
4 | ySAYPDSVP-Nle-Hsr-S [dYNH] |  | half-life in plasma [4]: > 1 h
5 | {P‑1 benzyl acid (m-Cl)}-SAYPDSVP-NH2 [120G8] | 4 rank, arbitrary scale 1-5 | 
6 | {P‑1 benzyl acid (p-CN)}-SAYPDSVP-NH2 [120A5] | 3 rank, arbitrary scale 1-5 | 
7 | {Propanoyl(3-(4-F-phenyl))}-SAYPDSVP-NH2 [120F11] | 2 rank, arbitrary scale 1-5 | 
8 | {P‑1 benzyl acid (p-NH2)}-SAYPDSVP-NH2 [120H5] | 1 rank, arbitrary scale 1-5 | 
9 | {P‑1 benzyl acid (m-F)}-SAYPDSVP-NH2 [120G7] | 2 rank, arbitrary scale 1-5 | 

More lines, main results first:

Row | Rank ordering by NMR [5] | Molecule | further results
10 | 3 rank, arbitrary scale 1-5 | {P‑1 benzyl acid (p-SO2NH2)}-SAYPDSVP-NH2 [120H8] | 
11 | 4 rank, arbitrary scale 1-5 | {P‑1 benzyl acid (m-CH3)}-SAYPDSVP-NH2 [123A12] | 
